# Assay results from the supplement of paper PMC10065799, “High-throughput profiling of sequence recognition by tyrosine kinases and SH2 domains using bacterial peptide display” (eLife, 2023).
# Columns and labels:
# AncSZ = experiment: phosphorylation enrichment, bacterial display (enrichment ratio); higher = better substrate or ligand; peptides without Tyr show the background
# EPHB1 = EPHB1 (UniProt P54762); experiment: as above
# EPHB2 = EPHB2 (UniProt P29323); experiment: as above
# FGFR1 = FGFR1 (UniProt P11362); experiment: as above
# FGFR1, sequence (P11362 whole entry, looked up): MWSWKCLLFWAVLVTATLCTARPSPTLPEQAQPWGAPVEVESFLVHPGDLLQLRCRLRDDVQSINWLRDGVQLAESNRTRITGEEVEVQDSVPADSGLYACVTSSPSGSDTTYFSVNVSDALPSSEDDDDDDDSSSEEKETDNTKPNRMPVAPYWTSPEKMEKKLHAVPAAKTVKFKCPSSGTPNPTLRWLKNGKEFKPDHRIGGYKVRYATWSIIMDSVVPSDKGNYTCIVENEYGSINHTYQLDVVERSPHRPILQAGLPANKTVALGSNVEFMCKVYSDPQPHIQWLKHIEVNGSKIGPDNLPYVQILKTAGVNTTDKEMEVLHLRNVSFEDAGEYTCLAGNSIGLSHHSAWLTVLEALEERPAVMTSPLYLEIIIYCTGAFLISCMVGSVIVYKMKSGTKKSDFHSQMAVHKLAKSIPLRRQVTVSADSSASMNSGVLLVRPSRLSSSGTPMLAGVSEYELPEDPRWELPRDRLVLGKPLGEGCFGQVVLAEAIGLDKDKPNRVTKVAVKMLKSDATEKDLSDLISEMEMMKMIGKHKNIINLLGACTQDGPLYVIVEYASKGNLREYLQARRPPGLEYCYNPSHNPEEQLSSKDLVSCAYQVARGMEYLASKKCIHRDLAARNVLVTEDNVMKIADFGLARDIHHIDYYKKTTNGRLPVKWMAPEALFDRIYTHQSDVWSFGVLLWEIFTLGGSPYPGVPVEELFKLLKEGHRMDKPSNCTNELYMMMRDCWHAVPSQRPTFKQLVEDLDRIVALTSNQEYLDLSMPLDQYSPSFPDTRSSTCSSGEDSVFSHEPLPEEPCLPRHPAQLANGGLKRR
# FGFR3 = FGFR3 (UniProt P22607); experiment: as above
# Fer (mouse) = experiment: as above
# Fes = Fes (UniProt P07332); experiment: as above
# Fes, sequence (P07332 whole entry, looked up): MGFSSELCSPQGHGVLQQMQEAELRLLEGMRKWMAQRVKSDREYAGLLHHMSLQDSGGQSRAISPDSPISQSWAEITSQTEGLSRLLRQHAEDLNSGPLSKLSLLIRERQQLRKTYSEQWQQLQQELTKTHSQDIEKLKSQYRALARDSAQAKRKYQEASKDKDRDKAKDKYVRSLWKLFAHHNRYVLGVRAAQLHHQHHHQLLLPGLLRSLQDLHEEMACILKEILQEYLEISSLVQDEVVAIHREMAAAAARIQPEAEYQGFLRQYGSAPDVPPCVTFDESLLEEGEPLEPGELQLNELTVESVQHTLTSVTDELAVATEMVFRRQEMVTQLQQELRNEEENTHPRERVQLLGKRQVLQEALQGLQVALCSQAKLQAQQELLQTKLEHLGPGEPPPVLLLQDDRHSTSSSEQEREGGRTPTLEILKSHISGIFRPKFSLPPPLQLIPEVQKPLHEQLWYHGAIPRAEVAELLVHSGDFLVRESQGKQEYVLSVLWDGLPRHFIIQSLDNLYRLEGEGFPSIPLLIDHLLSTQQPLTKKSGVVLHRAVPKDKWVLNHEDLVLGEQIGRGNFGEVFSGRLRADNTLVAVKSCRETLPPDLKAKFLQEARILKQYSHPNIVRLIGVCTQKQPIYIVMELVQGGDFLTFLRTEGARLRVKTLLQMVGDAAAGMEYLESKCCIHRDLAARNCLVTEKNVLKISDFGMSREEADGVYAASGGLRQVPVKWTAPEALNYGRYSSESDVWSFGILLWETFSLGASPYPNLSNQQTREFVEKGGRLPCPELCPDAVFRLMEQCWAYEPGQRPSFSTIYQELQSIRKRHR
# Fyn = Fyn (UniProt P06241); experiment: as above
# Fyn, sequence (P06241 whole entry, looked up): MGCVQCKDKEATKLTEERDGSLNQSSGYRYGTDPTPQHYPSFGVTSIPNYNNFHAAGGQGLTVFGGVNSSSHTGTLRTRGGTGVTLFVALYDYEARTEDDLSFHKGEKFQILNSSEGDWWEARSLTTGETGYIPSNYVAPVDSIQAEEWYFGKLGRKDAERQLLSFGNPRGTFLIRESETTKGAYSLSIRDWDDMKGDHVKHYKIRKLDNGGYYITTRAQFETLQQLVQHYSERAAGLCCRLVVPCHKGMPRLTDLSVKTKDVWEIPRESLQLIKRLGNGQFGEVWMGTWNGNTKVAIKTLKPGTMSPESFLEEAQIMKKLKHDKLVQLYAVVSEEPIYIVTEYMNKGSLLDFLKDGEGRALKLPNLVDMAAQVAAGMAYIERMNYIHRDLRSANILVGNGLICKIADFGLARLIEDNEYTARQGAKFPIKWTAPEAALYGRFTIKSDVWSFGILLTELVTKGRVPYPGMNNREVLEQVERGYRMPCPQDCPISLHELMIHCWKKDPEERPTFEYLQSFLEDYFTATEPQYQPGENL
# Hck = Hck (UniProt P08631); experiment: as above
# Hck, sequence (P08631 whole entry, looked up): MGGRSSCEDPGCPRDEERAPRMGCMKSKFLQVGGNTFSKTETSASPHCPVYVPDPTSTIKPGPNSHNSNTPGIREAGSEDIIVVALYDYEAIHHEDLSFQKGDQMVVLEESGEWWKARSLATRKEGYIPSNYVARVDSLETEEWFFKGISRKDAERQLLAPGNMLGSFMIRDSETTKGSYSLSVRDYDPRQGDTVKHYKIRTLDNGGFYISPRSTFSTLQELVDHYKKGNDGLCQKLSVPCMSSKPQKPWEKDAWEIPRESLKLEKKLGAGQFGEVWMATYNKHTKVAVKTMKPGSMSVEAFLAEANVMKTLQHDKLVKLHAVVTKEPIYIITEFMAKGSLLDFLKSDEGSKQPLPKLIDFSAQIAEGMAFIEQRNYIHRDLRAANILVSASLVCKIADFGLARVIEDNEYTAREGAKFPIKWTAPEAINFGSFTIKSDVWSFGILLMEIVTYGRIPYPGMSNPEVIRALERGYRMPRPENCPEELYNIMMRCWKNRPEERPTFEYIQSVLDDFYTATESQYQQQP
# Jak2 = Jak2 (UniProt O60674); experiment: as above
# MERTK = MERTK (UniProt Q12866); experiment: as above
# c-Abl (mouse) = experiment: as above
# c-Src = experiment: as above
# Grb2 SH2 = Grb2 SH2 (UniProt P62993); experiment: SH2 binding enrichment of the phosphorylated peptide, bacterial display (enrichment ratio); higher = better substrate or ligand; peptides without Tyr show the background
# Grb2 SH2, sequence (P62993 whole entry, looked up): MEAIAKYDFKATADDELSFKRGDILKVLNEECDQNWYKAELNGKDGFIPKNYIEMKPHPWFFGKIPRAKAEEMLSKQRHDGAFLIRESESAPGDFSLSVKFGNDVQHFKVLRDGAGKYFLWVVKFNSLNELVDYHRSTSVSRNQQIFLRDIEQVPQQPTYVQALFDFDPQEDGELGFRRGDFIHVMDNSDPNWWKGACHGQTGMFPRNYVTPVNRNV
# SHP2-C SH2 = experiment: as above
# c-Src SH2 = experiment: as above
# 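For SH2 binding enrichment of the phosphorylated peptide, bacterial display in this document: peptide library displayed on the E. coli surface as eCPX fusions, selected cells deep-sequenced, score is each peptide's frequency after selection divided by its frequency in the input.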
# 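For phosphorylation enrichment, bacterial display in this document: 11-residue human phosphosite peptides and single-mutation variants displayed on the E. coli surface, counted by deep sequencing, each peptide's frequency after selection divided by its frequency in the unselected input library; frequency after pTyr selection over input frequency; kinase dosed for 20-30% of maximal phosphorylation in three min.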
# EPHB1, sequence (P54762 whole entry, looked up): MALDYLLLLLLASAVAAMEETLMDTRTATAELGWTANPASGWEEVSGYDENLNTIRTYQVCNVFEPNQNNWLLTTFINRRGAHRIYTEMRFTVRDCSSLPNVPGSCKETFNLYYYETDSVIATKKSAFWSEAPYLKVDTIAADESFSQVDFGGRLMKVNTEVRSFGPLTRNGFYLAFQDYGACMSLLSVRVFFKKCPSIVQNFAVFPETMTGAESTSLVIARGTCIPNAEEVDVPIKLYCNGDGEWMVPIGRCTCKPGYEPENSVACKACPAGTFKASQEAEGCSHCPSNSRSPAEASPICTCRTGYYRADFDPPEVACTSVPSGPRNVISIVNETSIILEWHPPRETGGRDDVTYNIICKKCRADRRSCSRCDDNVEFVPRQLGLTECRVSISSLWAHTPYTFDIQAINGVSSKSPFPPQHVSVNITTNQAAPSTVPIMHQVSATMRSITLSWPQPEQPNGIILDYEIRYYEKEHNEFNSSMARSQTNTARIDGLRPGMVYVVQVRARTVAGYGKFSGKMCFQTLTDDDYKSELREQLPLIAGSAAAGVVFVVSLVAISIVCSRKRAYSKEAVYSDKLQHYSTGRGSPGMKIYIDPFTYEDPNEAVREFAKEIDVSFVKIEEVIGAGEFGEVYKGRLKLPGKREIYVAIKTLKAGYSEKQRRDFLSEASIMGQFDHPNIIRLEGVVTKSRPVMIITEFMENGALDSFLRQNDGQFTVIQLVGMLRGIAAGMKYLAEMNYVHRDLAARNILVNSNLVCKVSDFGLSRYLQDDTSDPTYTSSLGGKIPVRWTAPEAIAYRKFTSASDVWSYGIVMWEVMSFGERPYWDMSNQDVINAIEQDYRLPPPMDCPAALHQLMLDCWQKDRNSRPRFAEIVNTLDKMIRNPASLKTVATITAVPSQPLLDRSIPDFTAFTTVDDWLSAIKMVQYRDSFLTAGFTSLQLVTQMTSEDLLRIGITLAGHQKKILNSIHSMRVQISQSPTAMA
# EPHB2, sequence (P29323 whole entry, looked up): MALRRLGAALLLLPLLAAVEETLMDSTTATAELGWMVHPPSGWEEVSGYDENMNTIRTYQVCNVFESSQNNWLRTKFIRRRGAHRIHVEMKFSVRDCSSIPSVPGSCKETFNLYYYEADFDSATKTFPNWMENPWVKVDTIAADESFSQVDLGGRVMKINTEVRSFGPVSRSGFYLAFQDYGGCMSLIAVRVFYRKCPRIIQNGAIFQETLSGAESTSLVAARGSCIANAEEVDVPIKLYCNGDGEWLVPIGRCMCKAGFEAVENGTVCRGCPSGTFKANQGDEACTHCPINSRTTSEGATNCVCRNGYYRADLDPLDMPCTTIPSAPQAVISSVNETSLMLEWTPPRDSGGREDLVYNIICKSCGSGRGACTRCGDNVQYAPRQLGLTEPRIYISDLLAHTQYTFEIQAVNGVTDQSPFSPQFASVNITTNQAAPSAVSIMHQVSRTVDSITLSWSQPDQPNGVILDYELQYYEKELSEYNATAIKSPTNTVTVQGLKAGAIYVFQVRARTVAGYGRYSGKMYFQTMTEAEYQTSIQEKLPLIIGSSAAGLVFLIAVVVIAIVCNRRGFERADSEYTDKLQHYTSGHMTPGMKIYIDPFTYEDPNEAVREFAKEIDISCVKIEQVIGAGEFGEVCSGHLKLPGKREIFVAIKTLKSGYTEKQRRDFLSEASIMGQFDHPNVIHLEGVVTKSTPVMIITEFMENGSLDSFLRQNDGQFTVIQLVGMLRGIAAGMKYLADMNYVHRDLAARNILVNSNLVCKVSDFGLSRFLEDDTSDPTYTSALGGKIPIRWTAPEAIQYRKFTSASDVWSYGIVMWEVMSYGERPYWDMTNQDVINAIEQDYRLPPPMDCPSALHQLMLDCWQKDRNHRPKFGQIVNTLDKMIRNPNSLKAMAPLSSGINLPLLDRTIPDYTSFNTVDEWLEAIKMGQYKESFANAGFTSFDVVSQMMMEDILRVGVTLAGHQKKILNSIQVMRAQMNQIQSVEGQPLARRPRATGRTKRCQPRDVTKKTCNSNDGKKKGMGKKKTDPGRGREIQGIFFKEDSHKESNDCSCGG
sequence,measurement,setting,value
RGKEPYTKKAL [TTC21B_Y160],phosphorylation enrichment,AncSZ,0.815
same,phosphorylation enrichment,EPHB1,0.596
same,phosphorylation enrichment,EPHB2,0.698
same,phosphorylation enrichment,FGFR1,0.568
same,phosphorylation enrichment,FGFR3,0.522
same,phosphorylation enrichment,Fer (mouse),0.299
same,phosphorylation enrichment,Fes,1.01
same,phosphorylation enrichment,Fyn,0.438
same,phosphorylation enrichment,Hck,0.436
same,phosphorylation enrichment,Jak2,0.773
same,phosphorylation enrichment,MERTK,0.724
same,phosphorylation enrichment,c-Abl (mouse),0.933
same,phosphorylation enrichment,c-Src,0.829
same,SH2 binding enrichment,Grb2 SH2,0.785
same,SH2 binding enrichment,SHP2-C SH2,0.78
same,SH2 binding enrichment,c-Src SH2,0.651
RGSQQYRALTV [TUBB8_Y281],phosphorylation enrichment,AncSZ,0.862
same,phosphorylation enrichment,EPHB1,0.368
same,phosphorylation enrichment,EPHB2,0.518
same,phosphorylation enrichment,FGFR1,0.428
same,phosphorylation enrichment,FGFR3,0.364
same,phosphorylation enrichment,Fer (mouse),0.584
same,phosphorylation enrichment,Fes,0.633
same,phosphorylation enrichment,Fyn,0.325
same,phosphorylation enrichment,Hck,0.866
same,phosphorylation enrichment,Jak2,0.77
same,phosphorylation enrichment,MERTK,0.516
same,phosphorylation enrichment,c-Abl (mouse),0.84
same,phosphorylation enrichment,c-Src,0.594
same,SH2 binding enrichment,Grb2 SH2,1.04
same,SH2 binding enrichment,SHP2-C SH2,0.919
same,SH2 binding enrichment,c-Src SH2,0.535
RIGRKYKRVRF [F8_Y442_K444R],phosphorylation enrichment,AncSZ,2.77
same,phosphorylation enrichment,EPHB1,0.967
same,phosphorylation enrichment,EPHB2,1.65
same,phosphorylation enrichment,FGFR1,1.13
same,phosphorylation enrichment,FGFR3,1.55
same,phosphorylation enrichment,Fer (mouse),1.45
same,phosphorylation enrichment,Fes,3.31
same,phosphorylation enrichment,Fyn,1.35
same,phosphorylation enrichment,Hck,1.23
same,phosphorylation enrichment,Jak2,2.55
same,phosphorylation enrichment,MERTK,2.74
same,phosphorylation enrichment,c-Abl (mouse),2.59
same,phosphorylation enrichment,c-Src,3.73
same,SH2 binding enrichment,Grb2 SH2,0.554
same,SH2 binding enrichment,SHP2-C SH2,0.533
same,SH2 binding enrichment,c-Src SH2,0.302
RKELFYKADGE [SERPINC1_Y272],phosphorylation enrichment,AncSZ,1.12
same,phosphorylation enrichment,EPHB1,0.824
same,phosphorylation enrichment,EPHB2,0.548
same,phosphorylation enrichment,FGFR1,0.713
same,phosphorylation enrichment,FGFR3,0.638
same,phosphorylation enrichment,Fer (mouse),0.783
same,phosphorylation enrichment,Fes,1.08
same,phosphorylation enrichment,Fyn,0.519
same,phosphorylation enrichment,Hck,0.881
same,phosphorylation enrichment,Jak2,0.893
same,phosphorylation enrichment,MERTK,0.659
same,phosphorylation enrichment,c-Abl (mouse),0.779
same,phosphorylation enrichment,c-Src,0.63
same,SH2 binding enrichment,Grb2 SH2,0.858
same,SH2 binding enrichment,SHP2-C SH2,0.942
same,SH2 binding enrichment,c-Src SH2,0.369
RKLVDYDSAQH [BIN1_Y150_R154Q],phosphorylation enrichment,AncSZ,0.548
same,phosphorylation enrichment,EPHB1,0.648
same,phosphorylation enrichment,EPHB2,0.796
same,phosphorylation enrichment,FGFR1,0.425
same,phosphorylation enrichment,FGFR3,1.28
same,phosphorylation enrichment,Fer (mouse),0.737
same,phosphorylation enrichment,Fes,0.988
same,phosphorylation enrichment,Fyn,0.4
same,phosphorylation enrichment,Hck,0.668
same,phosphorylation enrichment,Jak2,0.56
same,phosphorylation enrichment,MERTK,0.565
same,phosphorylation enrichment,c-Abl (mouse),0.871
same,phosphorylation enrichment,c-Src,0.541
same,SH2 binding enrichment,Grb2 SH2,1.1
same,SH2 binding enrichment,SHP2-C SH2,0.607
same,SH2 binding enrichment,c-Src SH2,0.541
RKQQLYIAMEE [CCDC39_Y593_T594I],phosphorylation enrichment,AncSZ,0.993
same,phosphorylation enrichment,EPHB1,0.651
same,phosphorylation enrichment,EPHB2,0.822
same,phosphorylation enrichment,FGFR1,0.8
same,phosphorylation enrichment,FGFR3,0.543
same,phosphorylation enrichment,Fer (mouse),0.607
same,phosphorylation enrichment,Fes,1.28
same,phosphorylation enrichment,Fyn,0.655
same,phosphorylation enrichment,Hck,0.431
same,phosphorylation enrichment,Jak2,0.7
same,phosphorylation enrichment,MERTK,1
same,phosphorylation enrichment,c-Abl (mouse),0.725
same,phosphorylation enrichment,c-Src,0.753
same,SH2 binding enrichment,Grb2 SH2,0.916
same,SH2 binding enrichment,SHP2-C SH2,0.909
same,SH2 binding enrichment,c-Src SH2,0.938
RKVAQYMLENE [SLC16A6_Y224_E221V],phosphorylation enrichment,AncSZ,0.876
same,phosphorylation enrichment,EPHB1,0.612
same,phosphorylation enrichment,EPHB2,0.901
same,phosphorylation enrichment,FGFR1,0.648
same,phosphorylation enrichment,FGFR3,0.933
same,phosphorylation enrichment,Fer (mouse),0.861
same,phosphorylation enrichment,Fes,0.859
same,phosphorylation enrichment,Fyn,0.716
same,phosphorylation enrichment,Hck,0.718
same,phosphorylation enrichment,Jak2,1.03
same,phosphorylation enrichment,MERTK,0.465
same,phosphorylation enrichment,c-Abl (mouse),0.506
same,phosphorylation enrichment,c-Src,0.389
same,SH2 binding enrichment,Grb2 SH2,0.697
same,SH2 binding enrichment,SHP2-C SH2,0.617
same,SH2 binding enrichment,c-Src SH2,0.697
RLEPVYFVAPA [LAMC2_Y250_D247E],phosphorylation enrichment,AncSZ,2.59
same,phosphorylation enrichment,EPHB1,7.02
same,phosphorylation enrichment,EPHB2,6.76
same,phosphorylation enrichment,FGFR1,9.12
same,phosphorylation enrichment,FGFR3,8.72
same,phosphorylation enrichment,Fer (mouse),0.985
same,phosphorylation enrichment,Fes,1.02
same,phosphorylation enrichment,Fyn,9.5
same,phosphorylation enrichment,Hck,7.76
same,phosphorylation enrichment,Jak2,1.7
same,phosphorylation enrichment,MERTK,7.77
same,phosphorylation enrichment,c-Abl (mouse),9.14
same,phosphorylation enrichment,c-Src,6.33
same,SH2 binding enrichment,Grb2 SH2,0.798
same,SH2 binding enrichment,SHP2-C SH2,0.709
same,SH2 binding enrichment,c-Src SH2,0.625
RLLRGYRQDAY [HLA-A_Y137_F133L],phosphorylation enrichment,AncSZ,0.985
same,phosphorylation enrichment,EPHB1,0.374
same,phosphorylation enrichment,EPHB2,0.611
same,phosphorylation enrichment,FGFR1,0.608
same,phosphorylation enrichment,FGFR3,0.519
same,phosphorylation enrichment,Fer (mouse),0.653
same,phosphorylation enrichment,Fes,0.777
same,phosphorylation enrichment,Fyn,0.769
same,phosphorylation enrichment,Hck,0.645
same,phosphorylation enrichment,Jak2,0.802
same,phosphorylation enrichment,MERTK,0.694
same,phosphorylation enrichment,c-Abl (mouse),0.67
same,phosphorylation enrichment,c-Src,0.537
same,SH2 binding enrichment,Grb2 SH2,0.638
same,SH2 binding enrichment,SHP2-C SH2,0.593
same,SH2 binding enrichment,c-Src SH2,0.437
RLPNGYGLAYR [DLK1_Y262_S260N],phosphorylation enrichment,AncSZ,0.706
same,phosphorylation enrichment,EPHB1,0.416
same,phosphorylation enrichment,EPHB2,0.528
same,phosphorylation enrichment,FGFR1,0.663
same,phosphorylation enrichment,FGFR3,0.573
same,phosphorylation enrichment,Fer (mouse),0.504
same,phosphorylation enrichment,Fes,0.737
same,phosphorylation enrichment,Fyn,0.961
same,phosphorylation enrichment,Hck,0.571
same,phosphorylation enrichment,Jak2,0.509
same,phosphorylation enrichment,MERTK,0.453
same,phosphorylation enrichment,c-Abl (mouse),0.413
same,phosphorylation enrichment,c-Src,0.423
same,SH2 binding enrichment,Grb2 SH2,1.15
same,SH2 binding enrichment,SHP2-C SH2,0.55
same,SH2 binding enrichment,c-Src SH2,0.656
RLSPEYKQNEI [GJB1_Y243],phosphorylation enrichment,AncSZ,0.82
same,phosphorylation enrichment,EPHB1,0.468
same,phosphorylation enrichment,EPHB2,0.555
same,phosphorylation enrichment,FGFR1,0.481
same,phosphorylation enrichment,FGFR3,0.446
same,phosphorylation enrichment,Fer (mouse),0.491
same,phosphorylation enrichment,Fes,0.682
same,phosphorylation enrichment,Fyn,0.403
same,phosphorylation enrichment,Hck,0.584
same,phosphorylation enrichment,Jak2,0.59
same,phosphorylation enrichment,MERTK,0.621
same,phosphorylation enrichment,c-Abl (mouse),0.821
same,phosphorylation enrichment,c-Src,0.72
same,SH2 binding enrichment,Grb2 SH2,0.749
same,SH2 binding enrichment,SHP2-C SH2,0.933
same,SH2 binding enrichment,c-Src SH2,0.817
RLTEGYTGPFK [ZNF862_Y181_I178T],phosphorylation enrichment,AncSZ,0.519
same,phosphorylation enrichment,EPHB1,0.323
same,phosphorylation enrichment,EPHB2,0.41
same,phosphorylation enrichment,FGFR1,0.364
same,phosphorylation enrichment,FGFR3,0.456
same,phosphorylation enrichment,Fer (mouse),0.382
same,phosphorylation enrichment,Fes,0.611
same,phosphorylation enrichment,Fyn,0.473
same,phosphorylation enrichment,Hck,0.509
same,phosphorylation enrichment,Jak2,0.625
same,phosphorylation enrichment,MERTK,0.402
same,phosphorylation enrichment,c-Abl (mouse),0.426
same,phosphorylation enrichment,c-Src,0.423
same,SH2 binding enrichment,Grb2 SH2,1.14
same,SH2 binding enrichment,SHP2-C SH2,0.547
same,SH2 binding enrichment,c-Src SH2,0.522
RMGNLYDIDEN [GRIN2A_Y1246_D1251N],phosphorylation enrichment,AncSZ,1.52
same,phosphorylation enrichment,EPHB1,1.16
same,phosphorylation enrichment,EPHB2,1.44
same,phosphorylation enrichment,FGFR1,0.876
same,phosphorylation enrichment,FGFR3,1.22
same,phosphorylation enrichment,Fer (mouse),0.864
same,phosphorylation enrichment,Fes,2.16
same,phosphorylation enrichment,Fyn,4.25
same,phosphorylation enrichment,Hck,1.86
same,phosphorylation enrichment,Jak2,3.11
same,phosphorylation enrichment,MERTK,1.03
same,phosphorylation enrichment,c-Abl (mouse),2.11
same,phosphorylation enrichment,c-Src,3.1
same,SH2 binding enrichment,Grb2 SH2,0.805
same,SH2 binding enrichment,SHP2-C SH2,0.613
same,SH2 binding enrichment,c-Src SH2,1.2
RPAPQYPHQVP [ADAM12_Y895],phosphorylation enrichment,AncSZ,1.3
same,phosphorylation enrichment,EPHB1,0.572
same,phosphorylation enrichment,EPHB2,0.463
same,phosphorylation enrichment,FGFR1,0.608
same,phosphorylation enrichment,FGFR3,1.03
same,phosphorylation enrichment,Fer (mouse),0.685
same,phosphorylation enrichment,Fes,1.02
same,phosphorylation enrichment,Fyn,0.715
same,phosphorylation enrichment,Hck,0.582
same,phosphorylation enrichment,Jak2,1.36
same,phosphorylation enrichment,MERTK,0.718
same,phosphorylation enrichment,c-Abl (mouse),1.01
same,phosphorylation enrichment,c-Src,0.819
same,SH2 binding enrichment,Grb2 SH2,1.06
same,SH2 binding enrichment,SHP2-C SH2,0.687
same,SH2 binding enrichment,c-Src SH2,0.647
